Measurements as given in IntAct's records for PubMed 23395900.

B1: Protein RAD61 (Saccharomyces cerevisiae), Q99359 (parent)
chain: MRAYGKRGPVLRTPFRSNKGLPSSSDVEFSDDDVNSVIPDVSSTISSSIADHPIEGLLDEPRKAQDSSSSFDGANEKPSSQLDSKRNDQNVKIITSSDTSMAFMKDEKLSAFNFLDGSKASKRKRRRTYQKHDANITSSIEPDVQDEDSITMHNEFESIRKIYNDINEFILKLPRADDDILNKMLENEMKMDDSIENNSIRTSKDKKYGKFRTILINKNKENEIMGEEVDQKANTLSLNNADNSNAEKEGLTSTNHYNELKNMGDTIKYQDDIEFLLSNSKSNDNTTVPINEYFKKLLNLSLMIINDEEFFQYAKRYFKKEIIKLSFAQFRSDFPELILLQGYLLHKVSESQSDFPPSFDNFSIELSKDDGKIRTKKNKHIKKLSHLNFEDFLRKTQFKTGLYYSLSLWEMHGNLSLDIIKRISILASNKDLFSRHVKTFIPLLEKLITASEFCHMYIEQPEMFDSLISNLNNQFKDMLDDDSLIKILILLTNMEVHNYTLWKEADMIFQSSMNTILESIHPLTDAKVDNILLHLGLCLNICSRENSRLKLDGKLWYDMKTIFVKMIRDGSDTENRLVQGLFYLNFSFLIKQRKENSNLDPGELNLLLVELEAFKSETSQFNEGISNKIEIALNYLKSIYTSERITI
partner: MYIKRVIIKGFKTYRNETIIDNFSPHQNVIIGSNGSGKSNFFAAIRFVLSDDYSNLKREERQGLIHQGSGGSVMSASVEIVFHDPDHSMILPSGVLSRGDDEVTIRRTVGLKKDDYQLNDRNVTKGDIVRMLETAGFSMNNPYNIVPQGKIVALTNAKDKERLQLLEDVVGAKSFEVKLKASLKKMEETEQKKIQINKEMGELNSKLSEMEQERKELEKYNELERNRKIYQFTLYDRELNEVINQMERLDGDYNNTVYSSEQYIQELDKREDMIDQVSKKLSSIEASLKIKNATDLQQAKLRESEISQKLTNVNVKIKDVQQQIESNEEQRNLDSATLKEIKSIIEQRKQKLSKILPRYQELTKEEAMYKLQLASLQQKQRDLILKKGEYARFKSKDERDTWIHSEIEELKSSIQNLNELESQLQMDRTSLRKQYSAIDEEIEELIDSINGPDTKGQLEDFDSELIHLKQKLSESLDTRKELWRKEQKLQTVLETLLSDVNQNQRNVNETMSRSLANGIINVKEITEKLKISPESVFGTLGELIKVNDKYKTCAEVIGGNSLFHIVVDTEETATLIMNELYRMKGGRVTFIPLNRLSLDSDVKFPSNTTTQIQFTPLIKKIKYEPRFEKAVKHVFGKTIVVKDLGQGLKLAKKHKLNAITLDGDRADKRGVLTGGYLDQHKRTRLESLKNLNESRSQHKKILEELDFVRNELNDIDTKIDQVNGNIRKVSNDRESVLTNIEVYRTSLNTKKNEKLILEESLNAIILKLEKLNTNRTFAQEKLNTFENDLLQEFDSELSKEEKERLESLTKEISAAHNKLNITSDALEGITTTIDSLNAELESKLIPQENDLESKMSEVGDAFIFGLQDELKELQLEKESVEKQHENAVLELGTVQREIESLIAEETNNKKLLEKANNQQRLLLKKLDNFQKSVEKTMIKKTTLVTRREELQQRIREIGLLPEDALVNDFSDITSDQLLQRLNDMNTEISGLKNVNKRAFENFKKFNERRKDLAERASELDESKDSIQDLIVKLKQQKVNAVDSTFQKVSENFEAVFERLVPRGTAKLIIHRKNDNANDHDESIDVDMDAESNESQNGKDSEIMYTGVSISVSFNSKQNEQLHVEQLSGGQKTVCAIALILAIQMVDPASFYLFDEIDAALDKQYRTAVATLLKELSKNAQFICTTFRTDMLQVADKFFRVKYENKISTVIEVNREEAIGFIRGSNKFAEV
B2: Structural maintenance of chromosomes protein 3 (Saccharomyces cerevisiae), P47037 (parent)
chain: B1 partner
partner: B1 chain

Variants of: B1
Details: with smc3_yeast SMC3, P47037

Variant | effect of a mutation on the interaction
N493A;L577R;N622A | decreasing interaction

Variants of: B1
Details: with smc3_yeast SMC3, P47037
Remark: another data set of the same source

Variant | effect of a mutation on the interaction
D271A;D272A | decreasing interaction

Variants of: B1
Details: with smc3_yeast SMC3, P47037
Remark: another data set of the same source

Variant | effect of a mutation on the interaction
N493A;L532E;N622A | decreasing interaction

Variants of: B1
Details: with smc3_yeast SMC3, P47037
Remark: another data set of the same source

Variant | effect of a mutation on the interaction
N493A;N622A | decreasing interaction

Variants of: B1
Details: with smc3_yeast SMC3, P47037
Remark: another data set of the same source

Variant | effect of a mutation on the interaction
K376Q;K377Q;K382Q;K383Q | decreasing interaction

Variants of: B2
Details: with rad61_yeast RAD61, Q99359

Variant | effect of a mutation on the interaction
L163A;L166A;D168A | decreasing interaction

Variants of: B2
Details: with rad61_yeast RAD61, Q99359
Remark: another data set of the same source

Variant | effect of a mutation on the interaction
L163D;L166D | decreasing interaction

Variants of: B2
Details: with rad61_yeast RAD61, Q99359
Remark: another data set of the same source

Variant | effect of a mutation on the interaction
K112N;K113N | decreasing interaction
